B1: BINTOXB/9 Fab (Fab, V domains shown)
VH: QVQLQQSGAELARPGASVKMSCKASGYTFTSYTMHWVKQRPGQGLEWIGYINPSNDYTSYNQKFKDKATLTADKSSSTAYMQLSSLTSEDSAVYYCARCWGYDPYYFDYWGQGTTLTVSS
VL: DIVMSQSPSLLAVSAGEKVTMSCKSSQSLLNSRTRKNYLAWYQQKPGQSPKVLIYWASTRESGVPDRFTGSGSGTDFTLTISSVQAEDLAVYYCKQSYNLLTFGAGTKLELK
B2: BINTOXB/22 Fab (Fab, V domains shown)
VH: QIQLVQSGPELKKPGETVKISCKASGYTFTNYGMNWVKQAPGKDLKWMGWMSTYTGEPTYADDFKGRFAFSLETSASTAYLQINNLKNEDMATYFCARRGNYLSFDYWGQGTTLTVSS
VL: DIVMTQSHKFMSTSVGDRVSITCKASQDVSTAVGWYQQKPGQSPKLLIYSASYRYTGVPDRFTGSGSGTDFTFTISSVQAEDLAVYYCQQHYSPPFTFGSGTELEIK

Columns and labels:
[1] = target: T1, CDTb protoxin (proCDTb), CDTb residues 43 to 876 (Clostridioides difficile, UniProt O32739); assay: SPR; proCDTb with C-terminal 6xHis immobilised (~200 RU) on NTA chip, Biacore X100; Fab flowed at 0.1-25 nM; 10 mM HEPES pH 8.0, 150 mM NaCl, 6 mM CaCl2, 0.05% Tween 20; association 180 s, dissociation 600 s; 1:1 binding model; conditions: both partners purified
T1 construct: pET24b construct for biophysical and structural studies; A different construct (pGEX-6p1, GST cleaved, C-terminal 6xHis) was used for immunisation and the neutralisation assay; also called proCTDb; source: E. coli BL21(DE3), purified (Ni-NTA, anion exchange, SEC); not shown: His6, C-terminal, kept

[2] = target: T2, cleaved, mature CDTb (from limited trypsinization of proCDTb) (Clostridioides difficile); assay: cell-based or functional assay
T2 chain: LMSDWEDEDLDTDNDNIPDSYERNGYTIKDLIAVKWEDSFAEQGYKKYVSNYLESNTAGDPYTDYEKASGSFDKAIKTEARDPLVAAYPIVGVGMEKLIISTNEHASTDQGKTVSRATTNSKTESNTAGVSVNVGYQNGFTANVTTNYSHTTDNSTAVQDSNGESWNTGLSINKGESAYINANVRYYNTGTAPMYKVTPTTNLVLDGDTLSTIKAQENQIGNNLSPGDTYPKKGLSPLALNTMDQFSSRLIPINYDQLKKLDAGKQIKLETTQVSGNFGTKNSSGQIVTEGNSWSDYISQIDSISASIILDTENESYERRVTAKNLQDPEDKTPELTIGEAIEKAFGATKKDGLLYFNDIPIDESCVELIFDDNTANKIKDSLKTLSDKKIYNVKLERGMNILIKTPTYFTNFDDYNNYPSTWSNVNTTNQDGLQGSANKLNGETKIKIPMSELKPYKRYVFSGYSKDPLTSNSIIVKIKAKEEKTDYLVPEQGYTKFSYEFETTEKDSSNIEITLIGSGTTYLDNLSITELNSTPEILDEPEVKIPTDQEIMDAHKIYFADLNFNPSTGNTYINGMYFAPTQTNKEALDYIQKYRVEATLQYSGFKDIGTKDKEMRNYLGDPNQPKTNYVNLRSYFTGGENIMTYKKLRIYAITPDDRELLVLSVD

[3] = target: T3, CDTb D4 fragment, CDTb residues 753 to 876 (Clostridioides difficile, UniProt O32739); assay: crystal structure; conditions: both partners purified
T3 construct: pET22b construct; source: E. coli BL21(DE3), purified (Ni-NTA, SEC); not shown: His6, C-terminal, kept

[4] = target: T3, CDTb D4 fragment, CDTb residues 753 to …; assay: BLI; conditions: both partners purified

Binder | Kd [1] | EC50 of protection of HT29 cells from CDT (CDTa 25 ng/mL + cleaved, monomeric CDTb 75 ng/mL) cytotoxicity, Hoechst-stained surface, BINTOXB/9 IgG; blocks CDTb oligomerization (m7 with m7) [2] | binding result [3] | binding result [4] | EC50 of protection of HT29 cells from CDT (CDTa 25 ng/mL + cleaved, monomeric CDTb 75 ng/mL) cytotoxicity, Hoechst-stained surface, BINTOXB/22 IgG; blocks CDTb oligomerization (m7 with m7) [2]
B1 | 0.73 nM | 13 µg/mL | binds |  | 
B2 | 16.3 nM |  |  | no binding (tested: 200 nM) | 21 µg/mL

— paper PMC10127577 (Journal of Bacteriology, 2023)
